Measurements published in publication PMC10397247.

Key:
[1] = biological target: T1, P8mS; assay: two-hybrid library CC1; conditions: mean of both orientations;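 note: natural log of median RNA to DNA barcode read ratio; higher means stronger binding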
T1 chain: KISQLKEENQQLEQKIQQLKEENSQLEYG

[2] = biological target: T2, P5; assay: two-hybrid library CC1; conditions: mean of both orientations;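 note: natural log of median RNA to DNA barcode read ratio; higher means stronger binding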
T2 chain: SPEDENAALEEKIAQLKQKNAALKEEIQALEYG

[3] = biological target: T3, P3mS; assay: two-hybrid library CC1;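 note: natural log of median RNA to DNA barcode read ratio; higher means stronger binding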
T3 chain: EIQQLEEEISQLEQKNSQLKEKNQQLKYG

[4] = biological target: T4, P6; assay: two-hybrid library CC1; conditions: mean of both orientations;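 note: natural log of median RNA to DNA barcode read ratio; higher means stronger binding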
T4 chain: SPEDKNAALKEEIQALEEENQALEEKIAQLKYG

[5] = biological target: T5, P5SC2; assay: two-hybrid library CC1; conditions: mean of both orientations;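 note: natural log of median RNA to DNA barcode read ratio; higher means stronger binding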
T5 chain: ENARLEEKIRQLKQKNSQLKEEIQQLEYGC

[6] = biological target: T6, P4mS; assay: two-hybrid library CC1; conditions: mean of both orientations;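 note: natural log of median RNA to DNA barcode read ratio; higher means stronger binding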
T6 chain: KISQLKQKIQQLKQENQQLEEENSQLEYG

[7] = biological target: T7, P4; assay: two-hybrid library CC1; conditions: mean of both orientations
T7 chain: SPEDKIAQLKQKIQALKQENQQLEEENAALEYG

[8] = biological target: T8, P6SC2; assay: two-hybrid library CC1; conditions: mean of both orientations
T8 chain: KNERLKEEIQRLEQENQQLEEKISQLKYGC

[9] = biological target: T9, P7mS; assay: two-hybrid library CC1; conditions: mean of both orientations
T9 chain: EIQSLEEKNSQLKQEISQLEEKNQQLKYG

[10] = biological target: T10, P5mS; assay: two-hybrid library CC1; conditions: mean of both orientations
T10 chain: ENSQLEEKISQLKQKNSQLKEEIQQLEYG

[11] = biological target: T11, P6SC1; assay: two-hybrid library CC1; conditions: mean of both orientations
T11 chain: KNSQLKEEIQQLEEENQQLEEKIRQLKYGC

[12] = biological target: T12, P8; assay: two-hybrid library CC1; conditions: mean of both orientations
T12 chain: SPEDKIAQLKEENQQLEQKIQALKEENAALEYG

[13] = biological target: T13, P5SC1; assay: two-hybrid library CC1; conditions: mean of both orientations
T13 chain: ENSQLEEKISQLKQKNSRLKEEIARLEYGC

[14] = biological target: T14, P7; assay: two-hybrid library CC1; conditions: mean of both orientations
T14 chain: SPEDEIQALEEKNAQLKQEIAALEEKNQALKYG

[15] = biological target: T15, P6mS; assay: two-hybrid library CC1; conditions: mean of both orientations
T15 chain: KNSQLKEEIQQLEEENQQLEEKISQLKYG

[16] = biological target: T16, P9; assay: two-hybrid library CC1; conditions: mean of both orientations
T16 chain: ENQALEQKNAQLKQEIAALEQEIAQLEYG

[17] = biological target: T17, 4H967-bH; assay: two-hybrid library CCNG1
T17 chain: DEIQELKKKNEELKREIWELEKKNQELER

[18] = biological target: T18, O12; assay: two-hybrid library CCNG1
T18 chain: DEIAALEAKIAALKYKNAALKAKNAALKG

How did the interaction score [1] turn out when EIQQLEEEISQLEQKNSQLKEKNQQLKYG [P3mS] was run?
Its interaction score is -2.87.

What about the interaction score [2] of the same binder?
The interaction score was -2.93.

What about the interaction score [3] of the same binder?
The interaction score was -3.24.

What about the interaction score [4] of the same binder?
The interaction score was -2.8.

And the interaction score [5]?
The interaction score was -2.78.

And the interaction score [6]?
The interaction score was 0.221.

And the interaction score [7]?
The interaction score was -0.0449.

And the interaction score [8]?
Its interaction score is -2.5.

And the interaction score [9]?
Its interaction score is -2.96.

What about the interaction score [10] of the same binder?
The interaction score was -2.69.

And the interaction score [11]?
The interaction score was -2.8.

What about the interaction score [12] of the same binder?
The interaction score was -2.54.

What about the interaction score [13] of the same binder?
The interaction score was -2.77.

What about the interaction score [14] of the same binder?
Its interaction score is -2.64.

What about the interaction score [15] of the same binder?
The interaction score was -2.74.

What about the interaction score [16] of the same binder?
Its interaction score is -2.34.

DEIQELKKKNEELKREIWELEKKNQELER [4H967-bH] was tested. Which interaction score [17] did it give?
Its interaction score is -0.406.

What about the interaction score [18] of the same binder?
Its interaction score is -1.53.
